Experiment [1] deals with FcRn (Sino Biological Inc, CT009-H08H) (UniProt P55899). In words: SPR (Biacore X100), FcRn-His captured on anti-His IgG chip, antibody as analyte, steady-state affinity fit; second run. For orientation: In SPR one partner is held on a chip, and binding of the other changes the refractive index at the surface.
The target is the same in experiment [2]. In words: SPR (Biacore X100), FcRn-His captured on anti-His IgG chip, antibody as analyte, steady-state affinity fit; mean of the two runs.
The target is the same in experiment [3]. Nature of the experiment: SPR (Biacore X100), FcRn-His captured on anti-His IgG chip, antibody as analyte, steady-state affinity fit; first run.

The values below come from US20180022820A1.

What is called Kd is the free concentration of one partner at which half of the binding sites on the other are occupied at equilibrium, for simple one-to-one binding.

Chain of UniProt P55899 (P55899 24-297 limits assumed, chain 1 of 2): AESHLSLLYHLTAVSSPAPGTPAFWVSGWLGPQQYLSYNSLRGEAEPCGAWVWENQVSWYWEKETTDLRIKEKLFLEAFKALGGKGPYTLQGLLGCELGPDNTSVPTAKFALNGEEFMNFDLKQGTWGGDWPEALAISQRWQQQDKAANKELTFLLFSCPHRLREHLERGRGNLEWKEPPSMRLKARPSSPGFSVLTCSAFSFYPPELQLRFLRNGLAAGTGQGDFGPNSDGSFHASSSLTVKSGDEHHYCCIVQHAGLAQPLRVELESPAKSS
Chain of UniProt P55899 (P61769 21-119 limits assumed, chain 2 of 2, further chain): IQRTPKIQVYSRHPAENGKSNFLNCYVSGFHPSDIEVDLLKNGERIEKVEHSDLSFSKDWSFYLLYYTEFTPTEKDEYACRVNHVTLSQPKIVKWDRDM

As for “MIL41: a PERJETA sample as prepared by the inventors, which is in consistence with the amino acid sequence of PERJETA (antibody)”, the Kd in experiment [1] came out at 450 nM; in experiment [2], 492 nM; in experiment [3], 534 nM.
